The values below come from PMC6173309.

The target of the series is SOX11 (UniProt P35716 34-132). The series can be described thus: EMSA.
SOX11, sequence (P35716 34-132): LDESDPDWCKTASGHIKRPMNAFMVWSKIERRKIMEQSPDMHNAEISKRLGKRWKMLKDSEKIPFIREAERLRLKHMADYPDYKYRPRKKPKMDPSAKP

B1: modified Widom 601 with SOX11 site, free DNA (dsDNA)
DNA 1: CTGGAGAATCCCGGTCTGCAGGCCGCTCAATTGGTCGTAGACAGCTCTAGCACCGCTTAAACGCACGTACGGTATTGTTTATTTTGTTCCTCCGCCAAGGGGATTACTCCCTAGTCTCCAGGCACGTGTCAGATATATACATCCTGT
DNA 2: ACAGGATGTATATATCTGACACGTGCCTGGAGACTAGGGAGTAATCCCCTTGGCGGAGGAACAAAATAAACAATACCGTACGTGCGTTTAAGCGGTGCTAGAGCTGTCTACGACCAATTGAGCGGCCTGCAGACCGGGATTCTCCAG
B1: the binding result is on record as “binds”.
